Measurements from PMC4577081 (PLoS ONE, 2015).

Key:
[1] = target: T1, cynoCD47/mFc fusion protein (extracellular domain of cynomolgus CD47 fused to mouse Fc) (Macaca fascicularis, UniProt A0A2K5X4I2); test: SPR; Biacore 2000; antibody amine coupled to a CM4 chip, CD47 constructs as analyte; 10 mM HEPES pH 7.4, 150 mM NaCl, 0.005% tween-20; 25°C; global fit to a 1:1 model with mass transport; conditions: both partners purified
T1 construct: cynomolgus monkey CD47 extracellular domain, cDNA cloned from a cynomolgus spleen cDNA library (BioChain); differs from human CD47 at 3 amino acids in the extracellular domain; also called cyno-CD47 Fc fusion protein; cynomolgus monkey CD47

[2] = target: T2, human CD47/mFc fusion protein (extracellular domain of human CD47 fused to mouse Fc) (human, UniProt Q08722); test: ELISA; competition: plates coated with 1 μg/ml huCD47/mFc; 10 μg/ml biotin-labeled mouse 5F9 with various concentrations of unlabeled Hu5F9-G4, room temperature 1 hr; HRP-streptavidin; conditions: both partners purified
T2 construct: human CD47 extracellular domain, cloned from a full-length human CD47 cDNA (Open Biosystems); also called huCD47/mFc; hCD47/mFc; source: purified recombinant

[3] = target: T3, human CD47 on stably transfected rat YB2/0 cells (Homo sapiens, UniProt Q08722); test: flow cytometry on cells; hybridoma clones (supernatants) tested by FACS on parental or human CD47-transfected rat YB2/0 cells; conditions: partners not purified
T3 construct: human CD47 expressed on the surface of YB2/0 cells; also called CD47-transfected YB2/0 cells; source: rat YB2/0 cells, stably transfected, on cells

| Binder | Kd [1] [nM] | binding result [2] | binding result [3] |
| --- | --- | --- | --- |
| Hu5F9-G4 (humanized 5F9 antibody, human IgG4 with Ser228Pro) (antibody, V domains shown) VH: QVQLVQSGAEVKKPGASVKVSCKASGYTFTNYNMHWVRQAPGQRLEWMGTIYPGNDDTSYNQKFKDRVTITADTSASTAYMELSSLRSEDTAVYYCARGGYRAMDYWGQGTLVTVSS VL: DIVMTQSPLSLPVTPGEPASISCRSSQSIVYSNGNTYLGWYLQKPGQSPQLLIYKVSNRFSGVPDRFSGSGSGTDFTLKISRVEAEDVGVYYCFQGSHVPYTFGQGTKLEIK | 0.01 |  |  |
| mouse anti-human CD47 monoclonal antibody 5F9 (antibody, V domains shown, mouse 5F9 VH (IGHV1 family); mouse heavy chain constant region; mouse 5F9 VL (IGKV1 subgroup); mouse light chain constant region; not described beyond the IGKV1 V segment; also called mouse 5F9; parental mouse 5F9; source: hybridoma (spleen cells of immunized Balb/c mice fused with SP2/0 cells); supernatant in the FACS screen; copies: 2 + 2) VH: QVQLQQPGAELVKPGASVMMSCKASGYTFTNYNMHWVKQTPGQGLEWIGTIYPGNDDTSYNQKFKDKATLTADKSSSAAYMQLSSLTSEDSAVYYCARGGYRAMDYWGQGTSVTVSS VL: DVLMTQTPLSLPVSLGDQASISCRSSQSIVYSNGNTYLGWYLQKPGQSPKLLIYKVSNRFSGVPDRFSGSGSGTDFTLKISRVEAEDLGVYHCFQGSHVPYTFGGGTKVEIK |  | binds | binds |
